System: vaccinia virus mature virions (EGFP-MV)
Format: cell-based

B1: AID (protein, UniProt Q9GZX7 1-198, looked up)
Single-stranded DNA cytosine …: MDSLLMNRRKFLYQFKNVRWAKGRRETYLCYVVKRRDSATSFSLDFGYLRNKNGCHVELLFLRYISDWDLDPGRCYRVTWFTSWSPCYDCARHVADFLRGNPNLSLRIFTARLYFCEDRKAEPEGLRRLHRAGVQIAIMTFKDYFYCWNTFVENHERTFKAWEGLHENSVRLSRQLRRILLPLYEVDDLRDAFRTLGL
- inhibition of infection by expression of construct: 80%

B2: dominant negative dynamin (K44A) (protein, UniProt Q05193 1-864, looked up, variant K44A)
Dynamin-1: MGNRGMEDLIPLVNRLQDAFSAIGQNADLDLPQIAVVGGQSAGASSVLENFVGRDFLPRGSGIVTRRPLVLQLVNATTEYAEFLHCKGKKFTDFEEVRLEIEAETDRVTGTNKGISPVPINLRVYSPHVLNLTLVDLPGMTKVPVGDQPPDIEFQIRDMLMQFVTKENCLILAVSPANSDLANSDALKVAKEVDPQGQRTIGVITKLDLMDEGTDARDVLENKLLPLRRGYIGVVNRSQKDIDGKKDITAALAAERKFFLSHPSYRHLADRMGTPYLQKVLNQQLTNHIRDTLPGLRNKLQSQLLSIEKEVEEYKNFRPDDPARKTKALLQMVQQFAVDFEKRIEGSGDQIDTYELSGGARINRIFHERFPFELVKMEFDEKELRREISYAIKNIHGIRTGLFTPDMAFETIVKKQVKKIREPCLKCVDMVISELISTVRQCTKKLQQYPRLREEMERIVTTHIREREGRTKEQVMLLIDIELAYMNTNHEDFIGFANAQQRSNQMNKKKTSGNQDEILVIRKGWLTINNIGIMKGGSKEYWFVLTAENLSWYKDDEEKEKKYMLSVDNLKLRDVEKGFMSSKHIFALFNTEQRNVYKDYRQLELACETQEEVDSWKASFLRAGVYPERVGDKEKASETEENGSDSFMHSMDPQLERQVETIRNLVDSYMAIVNKTVRDLMPKTIMHLMINNTKEFIFSELLANLYSCGDQNTLMEESAEQAQRRDEMLRMYHALKEALSIIGDINTTTVSTPMPPPVDDSWLQVQSVPAGRRSPTSSPTPQRRAPAVPPARPGSRGPAPGPPPAGSALGGAPPVPSRPGASPDPFGPPPQVPSRPNRAPPGVPSRSGQASPSRPESPRPPFDL
- effect of expressed construct on infection: no impact

Reference: US20100272706A1, “ANTIVIRALS” (priority 2007, published 2010)
